Reference: US6602854B1, “Branched multimeric Apo A-I agonist compounds” (priority 1997, dated 2003)
Like-named read-outs stand apart in the source and are kept apart here.

Tests used:
[1] = system: mixture of HDL, LDL and VLDL
Experimental: The association of peptide 4 (SEQ ID NO:4) with human lipoprotein fractions was determined by incubating ^14C-labeled peptide 4 (SEQ ID NO:4) with each lipoprotein class (HDL, LDL and VLDL) and a mixture of the different lipoprotein classes.
HDL, LDL and VLDL were isolated by KBr density gradient ultracentrifugation at d=1.21 g/ml and purified by FPLC on a Superose 6B column size exclusion column (chromatography was carried out with a flow rate of 0.7 ml/min. and a running buffer of 10 mM Tris (pH 8), 115 mM NaCl, 2 mM EDTA and 0.01% NaN3). ^14C-labeled peptide 4 was incubated with HDL, LDL and VLDL at a peptide:phospholipid ratio of 1:5 (mass ratio) for 2 h at 37° C. The required amount of lipoprotein (volumes based on amount needed to yield 1000 μg) was mixed with 0.2 ml of peptide stock solution (1 mg/ml) and the solution was brought up to 2.2 ml using 0.9% of NaCl according to TABLE XIII:
After incubating for 2 hr. at 37° C., an aliquot (0.1 ml) was removed for liquid scintillation counting to determine the total radioactivity, the density of the remaining incubation mixture was adjusted to 1.21 g/ml with KBr, and the samples centrifuged at 100,000 rpm (300,000 g) for 24 hours at 4° C. in a TLA 100.3 rotor using a Beckman tabletop ultracentrifuge. The resulting supernatant was fractionated by removing 0.3 ml aliquots from the top of each sample for a total of 5 fractions, and 0.05 ml of each fraction was used for liquid scintillation counting. The top two fractions contain the floating lipoproteins, the other fractions (3-5) correspond to proteins/peptides in solution.

[2] = Pharmacokinetics in mice (radiolabeled peptide, intraperitoneal); type: in vivo; conditions: for HALF-LIFE: 2.5 mg/kg intraperitoneal
Experimental: In each experiment, 2.5 mg/kg radiolabeled peptide was injected intraperitoneally into mice which were fed normal mouse chow or the atherogenic Thomas-Harcroft modified diet (resulting in severely elevated VLDL and IDL cholesterol). Blood samples were taken at multiple time intervals for assessment of radioactivity in plasma.

[3] = system: HDL in human plasma; conditions: for Radioactivity in 300 μl: 50 μl value multiplied by 6
Experimental: Human plasma (2 ml) was incubated with 20, 40, 60, 80, and 100 μg of ^14C-labeled peptide peptide 4 for 2 hr. at 37° C. The lipoproteins were separated by adjusting the density to 1.21 g/ml and centrifugation in TLA 100.3 rotor at 100,000 rpm (300,000 g) for 36 hr. at 4° C. The top 900 μl (in 300 μl fractions) was taken for the analysis. 50 μl from each 300 μl fraction was counted for radioactivity and 200 μl from each fraction was analyzed by FPLC (Superose 6/Superose 12 combination column).

[4] = system: isolated human HDL; experiment: Formation of pre-β like particles: displacement of human ApoA-I from isolated human HDL; type: binding; conditions: increasing peptide:HDL mass ratio
Experimental: Human HDL was isolated by KBr density ultra centrifugation at density d=1.21 g/ml to obtain top fraction followed by Superose 6 gel filtration chromatography to separate HDL from other lipoproteins. Isolated HDL was adjusted to a final concentration of 1.0 mg/ml with physiological saline based on protein content determined by Bradford protein assay. An aliquot of 300 μl was removed from the isolated HDL preparation and incubated with 100 μl ^14C-labeled peptide 4 (0.2-1.0 μg/μl) for two hours at 37° C. Five separate incubations were analyzed including a blank containing 100 μl physiological saline and four dilutions of ^14C-labeled peptide 4: (i) 0.20 μg/μl peptide:HDL ratio=1:15; (ii) 0.30 μg/μl peptide:HDL ratio=1:10; (iii) […] peptide:HDL ratio=1:5; and (iv) 1.00 μg/μl peptide:HDL ratio=1:3. Following the two hour incubation, a 200 μl aliquot of the sample (total volume=400 μl) was loaded onto a Superose 6 gel filtration column for lipoprotein separation and analysis, and 100 μl was used to determine total radioactivity loaded. The conditions for all FPLC chromatographies were as described in Section 9.4, infra.

[5] = Control (peptide without lipoprotein)

## PVLDLFRELLNELLEALKQKLK [peptide 4]
[1]; [5]
  Recovery: 89%
  radioactivity Total: 79170
  radioactivity Total before centrifugation: 88550
  radioactivity in Fraction 1: 650
  radioactivity in Fraction 2: 1000
  radioactivity in Fraction 3: 6590
  radioactivity in Fraction 4: 36550
  radioactivity in Fraction 5: 34380
[1]; LP/Peptide
  FPLC analysis of the LP/peptide incubation mixture (in words): nearly all of the ^14C-labeled peptide 4 was associated with the HDL fraction
  Recovery: 87%
  radioactivity Total: 83650
  radioactivity Total before centrifugation: 96646
  radioactivity in Fraction 2: 12990
  radioactivity in Fraction 3: 3810
  radioactivity in Fraction 4: 1510
  radioactivity in Fraction 5: 5090
[1]; LP/Peptide (HDL, LDL and VLDL)
  radioactivity in Fraction 1: 60250
[1]; LP/Peptide, all lipoprotein fractions
  labeled peptide associated with the lipoprotein fraction: 88%
[2]; ApoE knockout mice
  maximum serum concentration reached: ^5The maximum serum concentration reached was 17.4% injected % injected cpm
  time of maximum serum concentration following injection: cpm at 1.46 hours following injection. r^2 = 0.973.
  HALF-LIFE: 14.2^5 hours
[2]; C57BL/6 mice, normal diet
  maximum serum concentration reached: ^1The maximum serum concentration reached was 25.7% injected % injected cpm
  time of maximum serum concentration following injection: cpm at 1.9 hours following injection. r^2 = 0.960.
  HALF-LIFE: 5.72^1 hours
[2]; C57Bl/6 mice, high fat diet
  time of maximum serum concentration following injection: cpm at 2.98 hours following injection. r^2 = 0.973.
  HALF-LIFE: 5.98^2 hours
[2]; mice, intraperitoneal
  association with plasma components in mice (in words): associated with the HDL component
  time the peptide remained stable in the circulation: at least 6 hours
[3]; 20 μg peptide in 2 ml human plasma, Fraction No. 1
  Radioactivity in 50 μl: 1407 cpm
[3]; 20 μg peptide, Fraction No. 1
  Recovery: 71.6%
  Radioactivity in 300 μl: 8442 cpm
[3]; 20 μg peptide, Fraction No. 2
  Radioactivity in 50 μl: 405 cpm
  Recovery: 20.6%
  Radioactivity in 300 μl: 2430 cpm
[3]; 20 μg peptide, Fraction No. 3
  Radioactivity in 50 μl: 152 cpm
  Recovery: 7.7%
  Radioactivity in 300 μl: 912 cpm
[3]; 40 μg peptide, Fraction No. 1
  Radioactivity in 50 μl: 2538 cpm
  Recovery: 70.4%
  Radioactivity in 300 μl: 15228 cpm
[3]; 40 μg peptide, Fraction No. 2
  Radioactivity in 50 μl: 721 cpm
  Recovery: 20%
  Radioactivity in 300 μl: 4326 cpm
[3]; 40 μg peptide, Fraction No. 3
  Radioactivity in 50 μl: 347 cpm
  Recovery: 9.6%
  Radioactivity in 300 μl: 2082 cpm
[3]; 60 μg peptide, Fraction No. 1
  Radioactivity in 50 μl: 4492 cpm
  Recovery: 75.5%
  Radioactivity in 300 μl: 26952 cpm
[3]; 60 μg peptide, Fraction No. 2
  Radioactivity in 50 μl: 1107 cpm
  Recovery: 18.6%
  Radioactivity in 300 μl: 6642 cpm
[3]; 60 μg peptide, Fraction No. 3
  Radioactivity in 50 μl: 354 cpm
  Recovery: 5.9%
  Radioactivity in 300 μl: 2124 cpm
[3]; 80 μg peptide, Fraction No. 1
  Radioactivity in 50 μl: 4715 cpm
  Recovery: 60%
  Radioactivity in 300 μl: 28290 cpm
[3]; 80 μg peptide, Fraction No. 2
  Radioactivity in 50 μl: 2251 cpm
  Recovery: 28.6%
  Radioactivity in 300 μl: 13506 cpm
[3]; 80 μg peptide, Fraction No. 3
  Radioactivity in 50 μl: 851 cpm
  Recovery: 11.3%
  Radioactivity in 300 μl: 5346 cpm
[3]; 100 μg peptide, Fraction No. 1
  Radioactivity in 50 μl: 5424 cpm
  Recovery: 67.5%
  Radioactivity in 300 μl: 32544 cpm
[3]; 100 μg peptide, Fraction No. 2
  Radioactivity in 50 μl: 1708 cpm
  Recovery: 21.2%
  Radioactivity in 300 μl: 10248 cpm
[3]; 100 μg peptide, Fraction No. 3
  Radioactivity in 50 μl: 907 cpm
  Recovery: 11.3%
  Radioactivity in 300 μl: 5442 cpm
[4]
  displacement of native ApoA-I from HDL (in words): a displacement of ApoA-I was observed which increased with increasing concentration of peptide
